Source: PMC11154711 (2024)

How the values were obtained:
Assay in all cases: BLI
OTUB1 F133A [1] = target: T1, OTUB1 F133A (human, UniProt Q96FW1 1-271, F133A)
OTUB1 V173D [2] = target: T2, OTUB1 V173D (human, UniProt Q96FW1 1-271, V173D)
OTUB1 V173K [3] = target: T3, OTUB1 V173K (human, UniProt Q96FW1 1-271, V173K)
OTUB1 F133A [4] = target: T1, OTUB1 F133A; remark: listed apart in the source
OTUB1 V173D [5] = target: T2, OTUB1 V173D; remark: listed apart in the source
OTUB1 V173K [6] = target: T3, OTUB1 V173K; remark: listed apart in the source

Kd (OTUB1 F133A [1]): 46.7 µM
Kd (OTUB1 V173D [2]): 3.02 µM
Kd (OTUB1 V173K [3]): 1.76 µM
koff (OTUB1 F133A [4]): 0.005 s⁻¹
koff (OTUB1 V173D [5]): 0.004 s⁻¹
koff (OTUB1 V173K [6]): 0.006 s⁻¹
B1: Ubc13 (E2 ubiquitin-conjugating enzyme) (enzyme)
chain: MAGLPRRIIKETQRLLAEPVPGIKAEPDESNARYFHVVIAGPQDSPFEGGTFKLELFLPEEYPMAAPKVRFMTKIYHPNVDKLGRICLDILKDKWSPALQIRTVLLSIQALLSAPNPDDPLANDVAEQWKTNEAQAIETARAWTRLYAMNNI
